Experimental findings from EP4803098A1 (Shandong Boan Biotechnology Co., Ltd., dated 2025) are described below.

The target of one assay is T1, mGIPR-Fc protein (mouse, UniProt Q0P543 19-134, limits assumed).
T1 construct: also called mouse GIPR-Fc protein; not shown: Fc part
T1 sequence (looked up): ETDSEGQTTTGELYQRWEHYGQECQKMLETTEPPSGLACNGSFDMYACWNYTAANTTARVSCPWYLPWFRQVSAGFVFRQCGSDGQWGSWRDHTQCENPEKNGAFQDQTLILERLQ
Put plainly: ELISA, mGIPR-Fc coated. In general terms: An ELISA detects its analyte on a solid surface through an enzyme-linked reagent.

Assay [1] has as its target T2, GIPR on CHOK1-GIPR/GLP-1R cells (human, UniProt P48546 22-466).
T2 sequence (looked up): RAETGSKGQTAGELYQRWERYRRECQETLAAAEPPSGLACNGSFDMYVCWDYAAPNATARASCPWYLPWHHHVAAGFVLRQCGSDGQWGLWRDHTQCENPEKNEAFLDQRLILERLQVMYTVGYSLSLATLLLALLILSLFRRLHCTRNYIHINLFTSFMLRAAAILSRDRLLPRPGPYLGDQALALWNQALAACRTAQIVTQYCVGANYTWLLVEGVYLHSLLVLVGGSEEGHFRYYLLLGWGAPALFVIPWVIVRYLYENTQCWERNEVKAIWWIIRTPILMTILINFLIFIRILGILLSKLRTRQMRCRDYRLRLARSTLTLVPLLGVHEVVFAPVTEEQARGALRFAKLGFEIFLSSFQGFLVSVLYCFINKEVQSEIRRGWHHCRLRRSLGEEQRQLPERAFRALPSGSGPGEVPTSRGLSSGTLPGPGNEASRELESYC
Put plainly: cell-based or functional assay.

Assay [2] deals with T2, GIPR on CHOK1-GIPR/GLP-1R cells. Put plainly: flow cytometry on CHOK1-GIPR/GLP-1R cells. A general note: In flow cytometry, cells or beads pass a laser one at a time.
The target in assay [3] is T3, hGIPR-His protein (human, UniProt P48546 22-138).
T3 chain: T2 sequence (looked up)
Description: BLI (Octet), antibody captured on FAB2G sensor, hGIPR-His in solution. For orientation: In BLI a coated tip is dipped into the sample, and binding shifts an interference pattern.

Assay [4] addresses T3, hGIPR-His protein. Put plainly: BLI (Octet), antibody captured on FAB2G sensor, hGIPR-His in solution, 1:1 model.
The target in assay [5] is T2, GIPR on CHOK1-GIPR/GLP-1R cells. Description: cell-based or functional assay. The source holds these as a separate data set.
The target is the same in assay [6]. Description: flow cytometry on CHOK1-GIPR/GLP-1R cells (run with BA191).
Assay [7] has the same target. Description: flow cytometry on CHOK1-GIPR/GLP-1R cells (run with CA360).
The target is the same in assay [8]. Description: flow cytometry on CHOK1-GIPR/GLP-1R cells (run with CE560).
The target is the same in assay [9]. Put plainly: flow cytometry on CHOK1-GIPR/GLP-1R cells (run with CE947).

Where a chain is given by its changes, count along the chain named. Read-outs that look alike come from different tables or passages of the source.

B1: BA191 (antibody, human IgG1, kappa, L234A L235A, V domains shown)
VH: EVQLVQSGAEVKKPGSSVKVSCKASGGTFSTFSSYAISWVRQAPGQGLEWMGRIIPILGIGNNAQKFQGRVTITADKSTSTAYMELSSLRSEDTAVYYCAREKDWGHFDYWGQGTLVTVSS
VL: DIQMTQSPSSLSASVGDRVTITCRASQGISNYLAWFQQKPGKAPKSLIYAASSLQSGVPSKFSGSGSGTDFTLTISSLQPEDFATYYCQQYNSYPITFGQGTRLEIKR
notes: also called GIPR antibody BA191
By EC50 is commonly meant the concentration that produces a half-maximal response. In general, Kd refers to the equilibrium constant for the complex coming apart. A low value points to a tighter complex. In the case of B1, the binding result in the assay with mGIPR-Fc protein is recorded as “no binding (tested: starting from 0.2 µg/mL)”. In addition, the “IC50 (µg/mL), cAMP content” value in assay [1] amounted to 0.04 µg/mL. Also, in assay [2], the EC50 is 0.091 µg/mL and the “Maximum binding value (RFU)” value is 17600 RFU. For the same molecule, in the assay with hGIPR-His protein [3], the Response amounted to 0.246. In the assay with hGIPR-His protein [4], this molecule had a Kd of 4.28 nM.

B2: CE947 (antibody, human IgG1, kappa, L234A L235A, V domains shown)
VH: EVQLVQSGAEVKKPGSSVKVSCKASGGTFNNYAISWVRQAPGQGLEWMGRIIPFLDIASNAQKFQGKVTITADKSTSTAYMELSSLRSEDTAVYYCAREVDWGWFDSWGQGTLVTVSS
VL: B1 VL with K61R, S77N, Q89L, N92Y, S93D, I96L, Q100G, R103K
notes: also called GIPR antibody CE947
Turning to B2, the binding result with mGIPR-Fc protein is “no binding (tested: starting from 0.2 µg/mL)”. Also, in assay [1], the “IC50 (µg/mL), cAMP content” value came out at 0.05 µg/mL. In addition, in [2], the EC50 is 0.131 µg/mL and the “Maximum binding value (RFU)” value is 311000 RFU. Further, the Response with hGIPR-His protein [3] worked out at 0.19. Also, the Kd in the assay with hGIPR-His protein [4] worked out at 1.13 nM.

B3: CA360 (antibody, human IgG1, kappa, L234A L235A, V domains shown)
VH: EVQLVQSGAEVKKPGSSVKVSCKASGGTFSGYPINWVRQAPGQGLEWMGRIIPIPGIPNYAQKFQDRVTITADKFANTAYMELSSLRSEDTAVYYCARDPLGPYVFDIWGQGTMVTVSS
VL: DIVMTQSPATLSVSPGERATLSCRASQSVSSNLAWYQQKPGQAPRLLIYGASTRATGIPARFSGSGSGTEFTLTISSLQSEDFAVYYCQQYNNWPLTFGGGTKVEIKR
notes: also called GIPR antibody CA360
Regarding B3, the “IC50 (µg/mL), cAMP content” value in assay [5] amounted to 0.2 µg/mL. Further, in assay [2], the EC50 turned out to be 0.328 µg/mL and the “Maximum binding value (RFU)” value was found to be 281000 RFU. The Response in the assay with hGIPR-His protein [3] was determined as 0.246. Binding in the assay with hGIPR-His protein [4] was characterised by a dissociation constant (Kd) of 3.07 nM.

B4: 2G10 (antibody, V domains shown)
VH: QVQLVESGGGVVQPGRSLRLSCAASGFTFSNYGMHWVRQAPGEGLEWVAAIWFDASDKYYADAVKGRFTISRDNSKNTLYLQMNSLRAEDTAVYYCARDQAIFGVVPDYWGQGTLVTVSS
VL: EIVMTQSPATLSVSPGERATLSCRASQSVSSNLAWYQQKPGQAPRLLIYGAATRATGIPARVSGSGSGTEFTLTISSLQSEDFAVYYCQQYNNWPLTFGGGTKVEIKR
notes: also called control group 2G10
Turning to B4, the “IC50 (µg/mL), cAMP content” value came to 0.3 µg/mL in assay [1] and 0.21 µg/mL in assay [5]. Further, the EC50 in assay [6] amounted to 0.151 µg/mL; in [7] it was 0.213 µg/mL; in assay [8], 0.263 µg/mL; in assay [9] it was 0.213 µg/mL. In addition, the Response with hGIPR-His protein [3] worked out at 0.142. Also, in the assay with hGIPR-His protein [4], the Kd stood at 12.6 nM.

B5: CE560 (antibody, human IgG1, kappa, L234A L235A, V domains shown)
VH: B2 VH with N60Y
VL: IQMTQSPSSLSASVGDRVTITCRASQGISSYLAWYQQKPGKAPKLLIYAASTLQSGVPSRFSGSGSGTDFTLTISSLQPEDFATYYCQQLNSYPLTFGGGTKVEIKR
notes: also called GIPR antibody CE560
Regarding B5, the binding result in the assay with mGIPR-Fc protein is on record as “no binding (tested: starting from 0.2 µg/mL)”. The “IC50 (µg/mL), cAMP content” value in [5] is 0.14 µg/mL. Also, in assay [2], the EC50 was 0.206 µg/mL and the “Maximum binding value (RFU)” value is 492000 RFU. Besides, in the assay with hGIPR-His protein [3], the Response was 0.222. The molecule also gave a Kd with hGIPR-His protein [4] of 2.63 nM.
